In this assay the target is T1, recombinant (10xHis)-labelled At14-3-3ω (Arabidopsis thaliana, UniProt Q01525 1-259).
T1 construct: 14-3-3 isoform omega, Arabidopsis thaliana; Construct details are in the Suppl; Methods; also called His-tagged 14-3-3ω protein; source: host in the Suppl; Methods
T1 sequence (looked up): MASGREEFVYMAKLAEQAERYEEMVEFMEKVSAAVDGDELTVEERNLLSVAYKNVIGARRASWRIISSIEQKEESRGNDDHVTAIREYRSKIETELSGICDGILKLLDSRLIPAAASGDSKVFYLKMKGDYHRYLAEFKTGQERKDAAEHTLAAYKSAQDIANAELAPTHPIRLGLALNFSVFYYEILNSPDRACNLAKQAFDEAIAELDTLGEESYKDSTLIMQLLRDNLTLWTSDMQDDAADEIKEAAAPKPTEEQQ
Description: peptide or protein array; 15-mer synthetic peptides of SOS1 from amino acid 446, overlapping by 12, spotted on a cellulose membrane; incubated with recombinant 10xHis-14-3-3ω; anti-His antibody, HRP-coupled anti-mouse antibody, ECL. The conditions noted are these: both partners purified.

B1: SOS1 C-term 15-mer peptide, spot H14 (peptide)
peptide: NTMVESSDEEDEDEG
notes: SOS1 (NHX7), Arabidopsis thaliana; source: synthetic peptide, immobilized on a cellulose membrane
On to B1, for which the binding result was “binds”.

B2: SOS1 C-term 15-mer peptide, spot H13 (peptide)
peptide: TRQNTMVESSDEEDE
notes: as for B1
For B2, the binding result is given as “binds”.

The values above are taken from paper PMC7246916, “14-3-3 Proteins and Other Candidates form Protein-Protein Interactions with the Cytosolic C-terminal End of SOS1 Affecting Its Transport Activity” (International Journal of Molecular Sciences, 2020).
